Results as given in the RNAGym collection of RNA variant scans (doi:10.7554/elife.80360).

B1: Hammerhead Ribozyme (parent)
chain: ACCGGAUGUGCUUUCCGGUCUGAUGAGUCCGUGAGGACGAAACAG

Variants of: B1
Assay: self-cleavage, relative activity (ratio to wild type); higher = more cleavage; co-transcriptional

Compared with ACCGGAUGUGCUUUCCGGUCUGAUGACUUCGUGAGGACGAAACAG, ACCGGAUGUGCUUUCCGGUCUGAUGACUACGUGAGGACGAAACAG is lower in self-cleavage: 0.576 for the first, 0.414 for the second.

Compared with ACCGGAUGUGCUUUCCGGUCUGAUGACUGCGUGAGGACGAAACAG, ACCGGAUGUGCUUUCCGGUCUGAUGACUCCGUGAGGACUAAACAG is higher in self-cleavage: 0.279 for the first, 0.31 for the second.

First: ACCGGAUGUGCUUUCCGGUCUGAUGACUCCGUGAGGACAAAACAG
Second: ACCGGAUGUGCUUUCCGGUCUGAUGACUCCGUGAGGACCAAACAG
The self-cleavage of the first is higher: 0.302 for the first, 0.261 for the second.

Going from ACCGGAUGUGCUUUCCGGUCUGAUGACUCCGUGAGGACGGAACAG to ACCGGAUGUGCUUUCCGGUCUGAUGACUCCGUGAGGACGCAACAG, the self-cleavage rises from 0.297 to 0.411.

Going from ACCGGAUGUGCUUUCCGGUCUGAUGACUCCGUGAGGACGUAACAG to ACCGGAUGUGCUUUCCGGUCUGAUGAUUCCGUGAGGACGGAACAG, the self-cleavage falls from 0.356 to 0.298.

Compared with ACCGGAUGUGCUUUCCGGUCUGAUGAUUCCGUGAGGACGCAACAG, ACCGGAUGUGCUUUCCGGUCUGAUGAUUCCGUGAGGACGUAACAG is higher in self-cleavage: 0.363 for the first, 0.402 for the second.

Going from ACCGGAUGUGCUUUCCGGUCUGAUGACUCCGUGAGGACGACACAG to ACCGGAUGUGCUUUCCGGUCUGAUGACUCCGUGAGGACGAGACAG, the self-cleavage rises from 0.339 to 0.457.

Going from ACCGGAUGUGCUUUCCGGUCUGAUGACUCCGUGAGGACGAUACAG to ACCGGAUGUGCUUUCCGGUCUGAUGACUCCGUGAGGACGAAACAA, the self-cleavage rises from 0.333 to 0.432.

Going from ACCGGAUGUGCUUUCCGGUCUGAUGACUCCGUGAGGACGAAACAU to ACCGGAUGUGCUUUCCGGUCUGAUGACUCCGUGAGGACGAAACAC, the self-cleavage falls from 0.564 to 0.493.

Compared with ACCGGAUGUGCUUUCCGGUCUGAUGAAUCCGGGAGGACGAAACAG, ACCGGAUGUGCUUUCCGGUCUGAUGAAUCCGCGAGGACGAAACAG is higher in self-cleavage: 0.628 for the first, 0.803 for the second.

Compared with ACCGGAUGUGCUUUCCGGUCUGAUGAAUCCGAGAGGACGAAACAG, ACCGGAUGUGCUUUCCGGUCUGAUGAAUCCGUGAGGACGAAACGG is higher in self-cleavage: 0.736 for the first, 1.07 for the second.

Going from ACCGGAUGUGCUUUCCGGUCUGAUGAAUCCGUGAGGACGAAACUG to ACCGGAUGUGCUUUCCGGUCUGAUGAAUCCGUGAGGACGAAACAU, the self-cleavage falls from 0.53 to 0.472.

Going from ACCGGAUGUGCUUUCCGGUCUGAUGAAUCCGUGAGGACGAAACAA to ACCGGAUGUGCUUUCCGGUCUGAUGAAUCCGUGAGGACGAAACAC, the self-cleavage falls from 0.416 to 0.378.

Going from ACCGGAUGUGCUUUCCGGUCUGAUGAAUCCGUGAGGACGAAAGAG to ACCGGAUGUGCUUUCCGGUCUGAUGAAUCCGUGAGGACGAAAAAG, the self-cleavage falls from 0.415 to 0.347.

Going from ACCGGAUGUGCUUUCCGGUCUGAUGAAUCCGUGAGGACGAAAUAG to ACCGGAUGUGCUUUCCGGUCUGAUGACUCCGUCAGGACGAAACAG, the self-cleavage rises from 0.33 to 0.723.

Going from ACCGGAUGUGCUUUCCGGUCUGAUGACUCCGUUAGGACGAAACAG to ACCGGAUGUGCUUUCCGGUCUGAUGACUCCGUAAGGACGAAACAG, the self-cleavage rises from 0.686 to 0.864.

Compared with ACCGGAUGUGCUUUCCGGUCUGAUGACUCCCUGAGGACGAAACAG, ACCGGAUGUGCUUUCCGGUCUGAUGACUCCUUGAGGACGAAACAG is higher in self-cleavage: 0.666 for the first, 0.772 for the second.

First: ACCGGAUGUGCUUUCCGGUCUGAUGACUCCAUGAGGACGAAACAG
Second: ACCGGAUGUGCUUUCCGGUCUGAUGAAUCCGUGAGUACGAAACAG
The self-cleavage of the first is higher: 0.885 for the first, 0.391 for the second.

Going from ACCGGAUGUGCUUUCCGGUCUGAUGAAUCCGUGAGCACGAAACAG to ACCGGAUGUGCUUUCCGGUCUGAUGAAUCCGUGAGAACGAAACAG, the self-cleavage rises from 0.316 to 0.401.

First: ACCGGAUGUGCUUUCCGGUCUGAUGACUCCGUGAGGACGAAUCAG
Second: ACCGGAUGUGCUUUCCGGUCUGAUGACUCCGUGAGGACGAACCAG
The self-cleavage of the first is higher: 0.313 for the first, 0.272 for the second.

Going from ACCGGAUGUGCUUUCCGGUCUGAUGACUCCGUGAGGACGAAGCAG to ACCGGAUGUGCUUUCCGGUCUGAUGACUCCGUGUGGACGAAACAG, the self-cleavage rises from 0.267 to 0.436.

Going from ACCGGAUGUGCUUUCCGGUCUGAUGACUCCGUGCGGACGAAACAG to ACCGGAUGUGCUUUCCGGUCUGAUGACUCCGUGGGGACGAAACAG, the self-cleavage rises from 0.411 to 0.653.

Compared with ACCGGAUGUGCUUUCCGGUCUGAUGAAUCCGUGAGGACUAAACAG, ACCGGAUGUGCUUUCCGGUCUGAUGAAUCCGUGAGGACCAAACAG is lower in self-cleavage: 0.348 for the first, 0.285 for the second.

Going from ACCGGAUGUGCUUUCCGGUCUGAUGAAUCCGUGAGGACAAAACAG to ACCGGAUGUGCUUUCCGGUCUGAUGAAUCCGUUAGGACGAAACAG, the self-cleavage rises from 0.247 to 0.976.

Going from ACCGGAUGUGCUUUCCGGUCUGAUGAAUCCGUCAGGACGAAACAG to ACCGGAUGUGCUUUCCGGUCUGAUGAAUCCGUAAGGACGAAACAG, the self-cleavage rises from 0.675 to 1.1.

Going from ACCGGAUGUGCUUUCCGGUCUGAUGAAUCCGUGAAGACGAAACAG to ACCGGAUGUGCUUUCCGGUCUGAUGAAUCCGUGACGACGAAACAG, the self-cleavage falls from 0.505 to 0.438.

Compared with ACCGGAUGUGCUUUCCGGUCUGAUGAAUCCGUGAUGACGAAACAG, ACCGGAUGUGCUUUCCGGUCUGAUGAUUACGUGAGGACGAAACAG is lower in self-cleavage: 0.411 for the first, 0.312 for the second.

Compared with ACCGGAUGUGCUUUCCGGUCUGAUGAUUGCGUGAGGACGAAACAG, ACCGGAUGUGCUUUCCGGUCUGAUGACUCCGUGAGCACGAAACAG is lower in self-cleavage: 0.366 for the first, 0.257 for the second.

With ACCGGAUGUGCUUUCCGGUCUGAUGACUCCGUGAGAACGAAACAG the self-cleavage was 0.392.
